Test results from paper PMC10884834, “SPR spectroscopic analysis of myosin binding to wild type and mutant UNC45B” (microPublication Biology, 2024).
Values belong to the binder of their own block, whether it stands above or below them.

Assays:
[1] = target: myosin II, full-length, purified from rabbit skeletal muscle (rabbit, UniProt Q28641 1-1938); experiment: SPR; BIAcore X100; His-tagged UNC45B constructs (0.2 uM) captured on Ni2+-NTA sensor chip; myosin analyte 1 up to 3500 nM at 5 ul/min; HBS-P (10 mM HEPES, 150 mM NaCl, 0.005% Tween20, pH 7.4) plus 50 uM EDTA; 20 C; steady-state signal fitted to a 1:1 one-site saturation model; n=3; conditions: both partners purified
[2] = target: myosin II, full-length, purified from rabbit skeletal muscle (rabbit, UniProt Q28641 1-1938, Deletion taken as residues 600-630, as the methods print for the mutant; the description gives the loop as N601-D630, so residue 600 is uncertain. Full-length canonical isoform (931 aa) assumed. His-t); experiment: as above; conditions: both partners purified

- Kd [1]: 0.33 µM
B1: UNC45B (wild type), Homo sapiens (natural protein, human, UniProt Q8IWX7 1-931, looked up)
chain: MAEVEAVQLKEEGNRHFQLQDYKAATNSYSQALKLTKDKALLATLYRNRAACGLKTESYVQAASDASRAIDINSSDIKALYRRCQALEHLGKLDQAFKDVQRCATLEPRNQNFQEMLRRLNTSIQEKLRVQFSTDSRVQKMFEILLDENSEADKREKAANNLIVLGREEAGAEKIFQNNGVALLLQLLDTKKPELVLAAVRTLSGMCSGHQARATVILHAVRIDRICSLMAVENEEMSLAVCNLLQAIIDSLSGEDKREHRGKEEALVLDTKKDLKQITSHLLDMLVSKKVSGQGRDQALNLLNKNVPRKDLAIHDNSRTIYVVDNGLRKILKVVGQVPDLPSCLPLTDNTRMLASILINKLYDDLRCDPERDHFRKICEEYITGKFDPQDMDKNLNAIQTVSGILQGPFDLGNQLLGLKGVMEMMVALCGSERETDQLVAVEALIHASTKLSRATFIITNGVSLLKQIYKTTKNEKIKIRTLVGLCKLGSAGGTDYGLRQFAEGSTEKLAKQCRKWLCNMSIDTRTRRWAVEGLAYLTLDADVKDDFVQDVPALQAMFELAKAGTSDKTILYSVATTLVNCTNSYDVKEVIPELVQLAKFSKQHVPEEHPKDKKDFIDMRVKRLLKAGVISALACMVKADSAILTDQTKELLARVFLALCDNPKDRGTIVAQGGGKALIPLALEGTDVGKVKAAHALAKIAAVSNPDIAFPGERVYEVVRPLVRLLDTQRDGLQNYEALLGLTNLSGRSDKLRQKIFKERALPDIENYMFENHDQLRQAATECMCNMVLHKEVQERFLADGNDRLKLVVLLCGEDDDKVQNAAAGALAMLTAAHKKLCLKMTQVTTQWLEILQRLCLHDQLSVQHRGLVIAYNLLAADAELAKKLVESELLEILTVVGKQEPDEKKAEVVQTARECLIKCMDYGFIKPVS
notes: UNC45B, Homo sapiens, codon optimized for E. coli, synthesized (GenScript), in a pET-28 vector; also called wild-type UNC-45B; source: E. coli BL21 DE3, purified (HisPur Ni-NTA resin)

- Kd [2]: 2.63 µM
B2: UNC45B loop deletion mutant (residues 600-630), Homo sapiens (natural protein)
chain: MAEVEAVQLKEEGNRHFQLQDYKAATNSYSQALKLTKDKALLATLYRNRAACGLKTESYVQAASDASRAIDINSSDIKALYRRCQALEHLGKLDQAFKDVQRCATLEPRNQNFQEMLRRLNTSIQEKLRVQFSTDSRVQKMFEILLDENSEADKREKAANNLIVLGREEAGAEKIFQNNGVALLLQLLDTKKPELVLAAVRTLSGMCSGHQARATVILHAVRIDRICSLMAVENEEMSLAVCNLLQAIIDSLSGEDKREHRGKEEALVLDTKKDLKQITSHLLDMLVSKKVSGQGRDQALNLLNKNVPRKDLAIHDNSRTIYVVDNGLRKILKVVGQVPDLPSCLPLTDNTRMLASILINKLYDDLRCDPERDHFRKICEEYITGKFDPQDMDKNLNAIQTVSGILQGPFDLGNQLLGLKGVMEMMVALCGSERETDQLVAVEALIHASTKLSRATFIITNGVSLLKQIYKTTKNEKIKIRTLVGLCKLGSAGGTDYGLRQFAEGSTEKLAKQCRKWLCNMSIDTRTRRWAVEGLAYLTLDADVKDDFVQDVPALQAMFELAKAGTSDKTILYSVATTLVNCTNSYDVKEVIPELVQLAISALACMVKADSAILTDQTKELLARVFLALCDNPKDRGTIVAQGGGKALIPLALEGTDVGKVKAAHALAKIAAVSNPDIAFPGERVYEVVRPLVRLLDTQRDGLQNYEALLGLTNLSGRSDKLRQKIFKERALPDIENYMFENHDQLRQAATECMCNMVLHKEVQERFLADGNDRLKLVVLLCGEDDDKVQNAAAGALAMLTAAHKKLCLKMTQVTTQWLEILQRLCLHDQLSVQHRGLVIAYNLLAADAELAKKLVESELLEILTVVGKQEPDEKKAEVVQTARECLIKCMDYGFIKPVS
